Source: publication PMC3286832 (2011)
Blank lines part the entries; values can stand above or below the binder they belong to.

Biological target: T1, Dnmt3a K44me0 peptide 39-50 (Mus musculus, UniProt O88508)
T1 chain: SATARKVGRPGR

Kd: ~5 µM
B1: G9a SET (protein)
chain: not shown

Kd: ~5 µM
B2: GLP SET (protein)
chain: not shown
